System: MS2 coat protein
Test: apparent KD of MS2 coat protein; higher = weaker reporter binding
Conditions: Eterna round: R107
How it was run: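 Each design's apparent KD comes from the median of binding-curve fits to its normalised clusters. Those clusters carried RNA switches transcribed on-chip from Illumina sequencing clusters. SNAP-549-labelled MS2 coat protein was titrated onto them in twofold steps (0.7 or 1.5 nM to 3 µM; per step 0.8–1.5 h down to 10–20 min). Conditions were 100 mM Tris-HCl pH 7.5, 80 mM KCl, 4 mM MgCl2, without or with constant ligand.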

[1] = input ligand: theophylline 20 uM
[2] = input ligand: theophylline 2 mM
[3] = input ligand: tryptophan 2.4 mM

Sequence	apparent KD of MS2 coat protein (input ligand: arginine 13.2 mM)	apparent KD of MS2 coat protein [1]	apparent KD of MS2 coat protein [2]	apparent KD of MS2 coat protein (input ligand: none)	apparent KD of MS2 coat protein [3]
AUCAUAAUAGACUCGUUUGAUUAUAUGGAACGAGGACCGGUACGGCCGCCACUCGUGAUUUACAUGAGGAUCACCCAUGUUAGCA [JR_ExcTryptoA_Sub005]	17 nM	23.5 nM	19.4 nM	–	–
AUCCACAGCCGAAGGAGCGCUAGAAGAUGACAUGAGGAUCACCCAUGUGUGUGAUGUGGCUAGCAGGUAGGUCGCGGAGUGGAUU [Exclusion - Arginine B (Freestyle 12)]	31.6 nM	35.5 nM	26.2 nM	24.3 nM	24.7 nM
AUCCAGAGCCGAAGGAGCGCUAGAAGAUGACAUGAGGAUCACCCAUGUGUGUGAUGUGGCUAGCAGGUAGGUCGCGGACUGGAUU [Exclusion - Arginine B (Freestyle 13)]	20.1 nM	28.1 nM	33.5 nM	22.4 nM	18.7 nM
AUCGGCCAGGGAAGGAGCGUGAAGACAUGAGGAUCACCCAUGUAGAGGCGCCGAAGGCGUUCGCAGGUAGGUCGCCCUGGCUGAU [#1 Same State - Arginine B Attempt #27 (HarryS)]	14.7 nM	23.8 nM	17.7 nM	14.7 nM	15.8 nM
AUCGGGCCUUUAGAACCGCCGUUCCCACCUCGAGGACCGGUACGGCCGCCACUCGGGUGACAUGAGGAUCACCCAUGUGGACGAA [Gexebidive]	31 nM	432 nM	737 nM	181 nM	284 nM
AUCGUACCUAAUGAUACCAGCAAGUGAUCAUAACAUGAGGAUCACCCAUGUAAUCAGUGAUGCCCUUGGCAGCAUAAUCGAUACA [Same State - Theophylline B (Freestyle 3)]	103 nM	170 nM	–	–	129 nM
AUGCACAUCAGAAGGAGCGUCUUGGCCAAUCUAGGCCAACAUGAGGAUCACCCAUGUGCAGGACAGGUAGGUCGCUGAUGUGUAG [Arg B SS t8]	11.6 nM	17.8 nM	14.5 nM	12.3 nM	12.4 nM
AUGCAGAACACGGCCGCCACUCCAUGUAUACAUGAGGAUCACCCAUGUAAUUUGUAUUUUUUAUAGAGGACCGGGUGAAAUGCAA [JR_SSTryptoB_Sub012]	26.7 nM	38.7 nM	42.9 nM	–	–
AUGCAUAGCGGAAGGAGCGCAAUAGAAUGACAUGAGGAUCACCCAUGUGUGUGAUGUGGGUUGCAGGUAGGUCGCCGAGUGGUAU [Exclusion - Arginine B (Freestyle 2)]	84 nM	128 nM	108 nM	92 nM	90.5 nM
AUGCAUGUCAGAAGGAGCGUCUUUAACAUGAGGAUCACCCAUGUAACAUUGAAUUCGAUGAGACAGGUAGGUCGCUGAAUAGUAA [JR_SSArginiB_Sub020]	21.1 nM	72.3 nM	62.5 nM	82.8 nM	42.9 nM
AUGCGCUAUAUGGAUACCAGUAUGAUAAUUGACAUGAGGAUCACCCAUGUGAGCUCUACCUACCCUUGGCAGCCAACCCUAUUUG [theeternabot_sameState_MS2_Theo_B_26]	21.7 nM	29.9 nM	–	–	23 nM
AUGCGGUGCGGAAGGAGCGAGUUUGCCUAUUUACAUGAGGAUCACCCAUGUCCUAAUGGGACUCAGGUAGGUCGCCGUUGUUGCA [Same State Arginine B GF30]	42 nM	71.4 nM	47.9 nM	45 nM	41.6 nM
AUGCUGACAAGGAGGUGUUCCUCAGCUGAUACCAGCCUGGAAACAGGCCCUUGGCAGCAGCACAUGAGGAUCACCCAUGUAAUAA [(T)'-(M)'-(T1)-(T2)-(M1)-(M2)_Design1(Mismatches)]	56.5 nM	517 nM	12.4 nM	27 nM	33.4 nM
AUGGUCGACGAUCUGCGAAAAGCAGAUCGACGAGGACCGGUACGGCCGCCACUCGUGUUUAUUUAACAUGAGGAUCACCCAUGUA [#14Tryptophan A Same State]	70.6 nM	123 nM	142 nM	–	–
AUGUAUGUCAGAAGGAGCGUCUUUAACAUGAGGAUCACCCAUGUAACAUUGAAUUCGAUGAGACAGGUAGGUCGCUGAAUAGUAA [SS-ArgB25]	29.7 nM	66 nM	18.8 nM	35 nM	21.9 nM
AUGUCGUUGAAUAUAGCGGCUUGGAGUGAUACCAGUAUGAUCCAAUACCCUUGGCAGCAUAACAUGAGGAUCACCCAUGUUCCAG [SSTheo A #25]	19.5 nM	43.7 nM	–	–	18.6 nM
AUGUCGUUGAAUAUAGCGGCUUGGUGUGAUACCAGAAUGAUCAAAUUCCCUUGGCAGCAUUACAUGAGGAUCACCCAUGUUUAGG [SSTheo A #18]	18.6 nM	30.2 nM	–	–	29.3 nM
AUGUCGUUGAAUAUAGCGGCUUGGUGUGAUACCAGAAUGAUCUAAUUCCCUUGGCAGCAUUACAUGAGGAUCACCCAUGUUCAGG [SSTheo A #20]	22 nM	28 nM	–	–	26.3 nM

Sequence	apparent KD of MS2 coat protein (input ligand: arginine 13.2 mM)	apparent KD of MS2 coat protein [1]	apparent KD of MS2 coat protein [2]	apparent KD of MS2 coat protein (input ligand: none)	apparent KD of MS2 coat protein [3]
AUGUUUGUGUGAGAUACCAGUGAGGCCACAUGAGGAUCACCCAUGUCCCUCACUCCGGCCCACCCUUGGCAGCUCUUAUAGAAAA [Exclusion Theophylline B GF 26]	8.81 nM	15.4 nM	–	–	9.79 nM
AUUAACAUGAGGAUCACCCAUGUUUGUCUCCGAGGACCGGUACGGCCGCCACUCGCAGGUUGGAGUCGCUAUAUGGGCGUUCACU [theeternabot_sameState_MS2_Trp_A_42]	31.7 nM	53.5 nM	64.9 nM	–	–
AUUAAGAAUAUGUAGACGGCGGAGAAGAGACGAGGACCGGUACGGCCGCCACUCGUGUUAGUUAACAUGAGGAUCACCCAUGUUA [#08 Tryptophan A Same State]	11.9 nM	14.1 nM	12.6 nM	12.1 nM	11.8 nM
AUUAAUAGUUGUGAUACCAGACUUACAUGAGGAUCACCCAUGUUACUUAAGUGUUUUGAUGUCCCUUGGCAGCACUGUUUAGUUA [JR_SSTheophyB_Sub016]	24.3 nM	33 nM	–	–	25 nM
AUUAUAGUUUAUAACGAAGUUGAUACAGAAGGAGCGGGAGUAAUCUCAGGUAGGUCGCUGAUAAUACAUGAGGAUCACCCAUGUG [#15 Same State - Arginine A]	17.1 nM	19.4 nM	24.7 nM	19 nM	18.9 nM
AUUCAUGGAAACAUGACAUACAUAACCGGUCGAGGACCGGUACGGCCGCCACUCGGUUGGUGGCACAUGAGGAUCACCCAUGUUA [SS Tryp A #10]	21.7 nM	39.3 nM	28.5 nM	–	–
AUUCAUGGAAACAUGACAUAGGGAUCUAUCCGAGGACCGGUACGGCCGCCACUCGCGUGGAGGCACAUGAGGAUCACCCAUGUUA [SS Tryp A #5]	71.2 nM	384 nM	843 nM	–	–
AUUCUUUACUGAAGGAGCGUCAUUCUUACAUGAGGAUCACCCAUGUUUAUUCUUUAUUAUUGACAGGUAGGUCGCAGAUUUUUUA [JR_SSArginiB_Sub018]	15.5 nM	17.7 nM	14.3 nM	13.8 nM	14.3 nM
AUUUACAUGGUCAUAUAUAUAUCGUCAGAUACCAGACUAGAUAUAGUCCCUUGGCAGCUGUUACAUGAGGAUCACCCAUGUUAUA [JR_Nu_ExcTheophyA_Sub019]	41.8 nM	95.8 nM	–	–	109 nM
AUUUAUUAGACGGCCGCCACUUGAAAGAGACCUCAUAAAUGGGAACAUGAGGAUCACCCAUGUAAGAGGACCGGGUCUAGUAGAU [TryptB-ms2@45]	55.2 nM	497 nM	1320 nM	567 nM	610 nM
AUUUGUACUUAGUGUUGAGUUCUGUCGGAAGGAGCGGAAUAUAAUCCAGGUAGGUCGCCGACAGACAUGAGGAUCACCCAUGUAA [#09 Exclusion - Arginine A]	28.2 nM	38.9 nM	34.7 nM	38.3 nM	32.3 nM
CAAAAUUUAACGGCCGCCACUUACUCAUGAGGUAACAACAUGAGGAUCACCCAUGUUUGAGGAUCAAGGACCGGGUUAAAUUUUG [AstrosSSTry#20]	26.6 nM	33.9 nM	30.7 nM	–	–
CAAGAACAGCCGAAUCUCGGCAGCUGAGAAGGAGCGCGAGAAGUCGCAGGUAGGUCGCUCAGGAAUACAUGAGGAUCACCCAUGU [Usaronen]	32.4 nM	45.9 nM	46.8 nM	28.4 nM	27.9 nM
CAAUGCAGGUCGGCCGCCACUACACACAUGAGGAUCACCCAUGUAGUUACUGGGUGAAGUGGCAGUAGGACCGGGACCUGCAUAC [Brourdmod03]	246 nM	423 nM	772 nM	290 nM	807 nM
CACAGUGCGAAAUUGAAACCGCACGAUCCUCGAGGACCGGUACGGCCGCCACUCGCGCGGGUCGUACAUGAGGAUCACCCAUGUC [Zaarmaqu]	71.8 nM	351 nM	869 nM	–	–
CACAUGAGGAUCACCCAUGUCUGAACUGAAGGAGCGCUAAACAAGGCAGGUAGGUCGCGGAAUCGUGUGUGCAUAUGCACACGCG [9.V]	13.6 nM	17.9 nM	31.3 nM	22 nM	16.5 nM
CACAUUUUUAGAAGGGCGGUUUCACUCCUGCGAGGACCGGUACGGCCGCCACUCGACAUGAGGAUCACCCAUGUGGAGAAGUUAG [Laesedti]	18.4 nM	27.9 nM	30.5 nM	–	–
